Target: T1, EDC4 (endogenous, EBOV-infected cells) (UniProt Q6P2E9 1-1401)
T1 sequence: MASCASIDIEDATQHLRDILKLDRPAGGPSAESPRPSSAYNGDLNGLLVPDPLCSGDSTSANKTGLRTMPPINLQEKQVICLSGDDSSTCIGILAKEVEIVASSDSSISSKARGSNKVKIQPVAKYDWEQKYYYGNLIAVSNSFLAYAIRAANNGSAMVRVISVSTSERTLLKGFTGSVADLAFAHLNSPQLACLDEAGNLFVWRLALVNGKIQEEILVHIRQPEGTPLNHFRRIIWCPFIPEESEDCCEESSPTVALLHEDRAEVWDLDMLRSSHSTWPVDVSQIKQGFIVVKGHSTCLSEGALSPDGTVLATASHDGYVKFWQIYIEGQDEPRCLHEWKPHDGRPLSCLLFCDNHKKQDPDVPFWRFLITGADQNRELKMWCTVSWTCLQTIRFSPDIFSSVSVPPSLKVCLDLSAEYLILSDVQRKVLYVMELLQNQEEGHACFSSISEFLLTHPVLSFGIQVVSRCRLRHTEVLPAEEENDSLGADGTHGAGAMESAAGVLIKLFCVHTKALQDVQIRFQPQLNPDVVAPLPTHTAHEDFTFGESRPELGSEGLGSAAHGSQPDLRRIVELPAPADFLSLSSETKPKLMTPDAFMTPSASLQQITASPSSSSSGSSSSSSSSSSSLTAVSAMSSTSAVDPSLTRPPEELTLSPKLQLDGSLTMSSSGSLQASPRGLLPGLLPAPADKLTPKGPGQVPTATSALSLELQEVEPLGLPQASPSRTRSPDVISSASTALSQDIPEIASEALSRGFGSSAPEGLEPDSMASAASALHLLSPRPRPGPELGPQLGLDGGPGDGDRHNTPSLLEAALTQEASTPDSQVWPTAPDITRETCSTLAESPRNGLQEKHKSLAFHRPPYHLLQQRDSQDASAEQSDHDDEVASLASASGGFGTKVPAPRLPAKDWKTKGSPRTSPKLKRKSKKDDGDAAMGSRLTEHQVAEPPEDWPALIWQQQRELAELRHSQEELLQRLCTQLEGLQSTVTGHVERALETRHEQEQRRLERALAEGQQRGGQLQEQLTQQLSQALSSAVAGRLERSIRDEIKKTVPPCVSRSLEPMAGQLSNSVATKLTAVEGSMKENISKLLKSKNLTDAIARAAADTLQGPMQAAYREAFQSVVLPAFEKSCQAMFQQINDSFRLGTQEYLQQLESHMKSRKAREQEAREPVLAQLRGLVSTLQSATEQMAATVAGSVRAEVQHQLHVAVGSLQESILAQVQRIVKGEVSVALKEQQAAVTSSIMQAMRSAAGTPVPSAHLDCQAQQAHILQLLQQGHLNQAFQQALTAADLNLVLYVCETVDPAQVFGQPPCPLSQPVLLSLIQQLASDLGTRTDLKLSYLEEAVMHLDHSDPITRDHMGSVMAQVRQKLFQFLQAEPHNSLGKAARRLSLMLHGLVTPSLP
Experiment: proximity ligation
Details: partners not purified

B1: VP35 made by EBOV in infected cells (natural protein)
chain: MTTRTKGRGHTAATTQNDRMPGPELSGWISEQLMTGRIPVSDIFCDIENNPGLCYASQMQQTKPNPKTRNSQTQTDPICNHSFEEVVQTLASLATVVQQQTIASESLEQRITSLENGLKPVYDMAKTISSLNRVCAEMVAKYDLLVMTTGRATATAAATEAYWAEHGQPPPGPSLYEESAIRGKIESRDETVPQSVREAFNNLNSTTSLTEENFGKPDISAKDLRNIMYDHLPGFGTAFHQLVQVICKLGKDSNSLDIIHAEFQASLAEGDSPQCALIQITKRVPIFQDAAPPVIHIRSRGDIPRACQKSLRPVPPSPKIDRGWVCVFQLQDGKTLGLKI
  PLA puncta per cell, fold over uninfected cells: 6 fold

Reference: paper PMC12475165 (Nature Communications, 2025)
